Patent US20260209293A1 (Novo Nordisk, published 2026)
*1 amine or outer side, *2 acyl side, *3 side chain or, on linkers, in order; H or OH if unused. The star is where a group is joined. C18 diacid = O=C(O)CCCCCCCCCCCCCCCCC(=O)*; γGlu = O=C(O)[C@H](CCC(=O)[*:2])N[*:1]

T1: human amylin-3(a) receptor (human, UniProt P30988 25-474; O60896 24-148)
T1 sequence (looked up) 1: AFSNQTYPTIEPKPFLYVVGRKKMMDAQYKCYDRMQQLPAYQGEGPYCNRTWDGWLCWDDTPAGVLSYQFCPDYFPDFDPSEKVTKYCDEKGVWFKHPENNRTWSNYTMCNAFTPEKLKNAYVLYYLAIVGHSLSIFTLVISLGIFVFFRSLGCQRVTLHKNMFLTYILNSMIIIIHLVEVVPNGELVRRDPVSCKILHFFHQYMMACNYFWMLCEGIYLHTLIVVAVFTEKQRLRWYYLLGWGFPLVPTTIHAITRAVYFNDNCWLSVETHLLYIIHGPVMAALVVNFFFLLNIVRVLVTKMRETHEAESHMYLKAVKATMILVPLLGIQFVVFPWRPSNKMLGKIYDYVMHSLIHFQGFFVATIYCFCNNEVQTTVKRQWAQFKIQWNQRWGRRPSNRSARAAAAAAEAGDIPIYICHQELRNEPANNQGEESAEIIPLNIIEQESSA
T1 sequence (looked up) 2: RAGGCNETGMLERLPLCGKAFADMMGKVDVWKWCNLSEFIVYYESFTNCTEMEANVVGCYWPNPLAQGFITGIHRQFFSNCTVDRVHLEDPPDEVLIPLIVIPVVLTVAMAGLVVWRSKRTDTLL

T2: human calcitonin receptor (a) (human, UniProt P30988 25-474)
T2 sequence (looked up): T1 sequence (looked up) 1

B1: N^1-[(4S)-4-carboxy-4-(17-carboxyheptadecanoylamino)butanoyl]-[Ala1,Ser2,His3,Leu4,Ser5,Ala7,Gln8,Ala10,Glu14, His17, Pro25, Pro28, … (peptide)
peptide: {C18 diacid-γGlu}-ASHLSTAQTARLAEFLHHFGPILPPTDVGSETY-NH2
SMILES: CC[C@H](C)[C@H](NC(=O)[C@@H]1CCCN1C(=O)CNC(=O)[C@H](Cc1ccccc1)NC(=O)[C@H](Cc1c[nH]cn1)NC(=O)[C@H](Cc1c[nH]cn1)NC(=O)[C@H](CC(C)C)NC(=O)[C@H](Cc1ccccc1)NC(=O)[C@H](CCC(=O)O)NC(=O)[C@H](C)NC(=O)[C@H](CC(C)C)NC(=O)[C@H](CCCNC(=N)N)NC(=O)[C@H](C)NC(=O)[C@@H](NC(=O)[C@H](CCC(N)=O)NC(=O)[C@H](C)NC(=O)[C@@H](NC(=O)[C@H](CO)NC(=O)[C@H](CC(C)C)NC(=O)[C@H](Cc1c[nH]cn1)NC(=O)[C@H](CO)NC(=O)[C@H](C)NC(=O)CC[C@H](NC(=O)CCCCCCCCCCCCCCCCC(=O)O)C(=O)O)[C@@H](C)O)[C@@H](C)O)C(=O)N[C@@H](CC(C)C)C(=O)N1CCC[C@H]1C(=O)N1CCC[C@H]1C(=O)N[C@H](C(=O)N[C@@H](CC(=O)O)C(=O)N[C@H](C(=O)NCC(=O)N[C@@H](CO)C(=O)N[C@@H](CCC(=O)O)C(=O)N[C@H](C(=O)N[C@@H](Cc1ccc(O)cc1)C(N)=O)[C@@H](C)O)C(C)C)[C@@H](C)O
B2: N^1-[(4S)-4-carboxy-4-(17-carboxyheptadecanoylamino)butanoyl]-[Ala1,Ser2,His3,Leu4,Ser5,Ala7,Gln8,Ala10,Glu14,His17,Pro25,Pro28,Pro29,Asp31,Glu35,Pro37],des-(19 … (peptide)
peptide: {C18 diacid-γGlu}-ASHLSTAQTARLAEFLHHFGPILPPTDVGSETP-NH2
SMILES: CC[C@H](C)[C@H](NC(=O)[C@@H]1CCCN1C(=O)CNC(=O)[C@H](Cc1ccccc1)NC(=O)[C@H](Cc1c[nH]cn1)NC(=O)[C@H](Cc1c[nH]cn1)NC(=O)[C@H](CC(C)C)NC(=O)[C@H](Cc1ccccc1)NC(=O)[C@H](CCC(=O)O)NC(=O)[C@H](C)NC(=O)[C@H](CC(C)C)NC(=O)[C@H](CCCNC(=N)N)NC(=O)[C@H](C)NC(=O)[C@@H](NC(=O)[C@H](CCC(N)=O)NC(=O)[C@H](C)NC(=O)[C@@H](NC(=O)[C@H](CO)NC(=O)[C@H](CC(C)C)NC(=O)[C@H](Cc1c[nH]cn1)NC(=O)[C@H](CO)NC(=O)[C@H](C)NC(=O)CC[C@H](NC(=O)CCCCCCCCCCCCCCCCC(=O)O)C(=O)O)[C@@H](C)O)[C@@H](C)O)C(=O)N[C@@H](CC(C)C)C(=O)N1CCC[C@H]1C(=O)N1CCC[C@H]1C(=O)N[C@H](C(=O)N[C@@H](CC(=O)O)C(=O)N[C@H](C(=O)NCC(=O)N[C@@H](CO)C(=O)N[C@@H](CCC(=O)O)C(=O)N[C@H](C(=O)N1CCC[C@H]1C(N)=O)[C@@H](C)O)C(C)C)[C@@H](C)O

Columns and labels:
[1] = biological target: T1, human amylin-3(a) receptor; assay: cell-based or functional assay
[2] = biological target: T2, human calcitonin receptor (a); assay: cell-based or functional assay

Binder | hAmyR3 potency, EC50 (pM); CRE-luciferase reporter in BHK cells [1] [pM] | hCalcR potency, EC50 (pM); CRE-luciferase reporter in BHK cells [2] [pM]
B1 | 2.11 | 2.78
B2 | 1.06 | 1.76
